According to FireProtDB (doi:10.1002/pro.370):
Where “and” joins values, the source holds several entries; their conditions need not be identical. Equal entries are not always repeated.

B1: Guanyl-specific ribonuclease Sa wild type, P05798 (protein)
chain: DVSGTVCLSALPPEATDTLNLIASDGPFPYSQDGVVFQNRESVLPTQSYGYYHEYTVITPGARTRGTRRIITGEATQEDYYTGDHYATFSLIDQTC
B2: Variable large protein wild type, O06878 (protein)
chain: MKKISSAILLTTFFVFINCKSQVADKDDPTNKFYQSVIQLGNGFLDVFTSFGGLVAEAFGFKSDPKKSDVKTYFTTVAAKLEKTKTDLNSLPKEKSDISSTTGKPDSTGSVGTAVEGAIKEVSELLDKLVKAVKTAEGASSGTAAIGEVVADADAAKVADKASVKGIAKGIKEIVEAAGGSEKLKAVAAAKGENNKGAGKLFGKAGAAAHGDSEAASKAAGAVSAVSGEQILSAIVTAADAAEQDGKKPEEAKNPIAAAIGDKDGGAEFGQDEMKKDDQIAAAIALRGMAKDGKFAVKDGEKEKAEGAIKGAAESAVRKVLGAITGLIGDAVSSGLRKVGDSVKAASKETPPALNK

Conditions: Kitasatospora aureofaciens; pH 3; 25 °C; Urea; CD; Glycine 30 mM; whole UniProt chain shown

Row | Protein | denaturant m value [kcal/mol/M] | denaturant midpoint (higher = more stable) [M] | unfolding free energy [kcal/mol]
1 | B1 | 1.63 | 1.6 | 2.6

Same assay, conditions: Kitasatospora aureofaciens; pH 7; 25 °C; Urea; CD; MOPS 30 mM; whole UniProt chain shown

Row | Protein | denaturant m value | denaturant midpoint (higher = more stable) | unfolding free energy
2 | B1 | 1 kcal/mol/M and 0.94 kcal/mol/M | 6.4 M and 6.45 M | 6.4 kcal/mol and 6.1 kcal/mol

Same assay, conditions: Borreliella burgdorferi; pH 7; 25 °C; Urea; CD; MOPS 30 mM; whole UniProt chain shown

Row | Protein | denaturant m value [kcal/mol/M] | denaturant midpoint (higher = more stable) [M] | unfolding free energy [kcal/mol]
3 | B2 | 3.86 | 1.19 | 4.6
